B1: AtARF2-FL OPCA (D797-8S) (natural protein, Arabidopsis thaliana, UniProt Q94JM3 1-859, looked up)
chain: MASSEVSMKGNRGGDNFSSSGFSDPKETRNVSVAGEGQKSNSTRSAAAERALDPEAALYRELWHACAGPLVTVPRQDDRVFYFPQGHIEQVEASTNQAAEQQMPLYDLPSKLLCRVINVDLKAEADTDEVYAQITLLPEANQDENAIEKEAPLPPPPRFQVHSFCKTLTASDTSTHGGFSVLRRHADECLPPLDMSRQPPTQELVAKDLHANEWRFRHIFRGQPRRHLLQSGWSVFVSSKRLVAGDAFIFLRGENGELRVGVRRAMRQQGNVPSSVISSHSMHLGVLATAWHAISTGTMFTVYYKPRTSPSEFIVPFDQYMESVKNNYSIGMRFKMRFEGEEAPEQRFTGTIVGIEESDPTRWPKSKWRSLKVRWDETSSIPRPDRVSPWKVEPALAPPALSPVPMPRPKRPRSNIAPSSPDSSMLTREGTTKANMDPLPASGLSRVLQGQEYSTLRTKHTESVECDAPENSVVWQSSADDDKVDVVSGSRRYGSENWMSSARHEPTYTDLLSGFGTNIDPSHGQRIPFYDHSSSPSMPAKRILSDSEGKFDYLANQWQMIHSGLSLKLHESPKVPAATDASLQGRCNVKYSEYPVLNGLSTENAGGNWPIRPRALNYYEEVVNAQAQAQAREQVTKQPFTIQEETAKSREGNCRLFGIPLTNNMNGTDSTMSQRNNLNDAAGLTQIASPKVQDLSDQSKGSKSTNDHREQGRPFQTNNPHPKDAQTKTNSSRSCTKVHKQGIALGRSVDLSKFQNYEELVAELDRLFEFNGELMAPKKDWLIVYTDEENDMMLVGSSPWQEFCCMVRKIFIYTKEEVRKMNPGTLSCRSEEEAVVGEGSDAKDAKSASNPSLSSAGNS
B2: AtARF2-FL K2S (K737S) (natural protein, Arabidopsis thaliana, UniProt Q94JM3 1-859, looked up)
chain: B1 chain with K737S, S797D, S798D

In data set [1] the target is AtARF2-DBD (DNA binding domain of Arabidopsis thaliana auxin response factor 2) (Arabidopsis thaliana).
Data set [2] concerns the molecule itself.
In the data set “AtARF2-FL OPCA (D797-8S)” the target is B1.

Changes are numbered by the printed parent chain. Numbers in names are those of the source.

The Kd is the concentration at which binding is half-saturated. The low end stands for tighter binding, the high end for weaker binding. In data set [1], “AtARF2-DBD (DNA binding domain of Arabidopsis thaliana auxin response factor 2) (domain or fragment)” displayed a Kd of 1900 nM. That is a single-digit micromolar value.
As to B1, the affinity in data set [2], expressed as Kd, was 410 nM. In other words, the sub-micromolar range.
Regarding B2, the Kd with AtARF2-FL OPCA (D797-8S) was found to be 16 nM; in data set [2], 230 nM.

The record behind these values is publication PMC10089223 (Proceedings of the National Academy of Sciences of the …, 2022).
